{"source": "patent US10975365B2", "about": "“Di-enzymatic chimeric endolysin” (Government of the United States of America, as represented …, priority 2018, dated 2021)", "key": {"[1]": {"system": "eight serotypes of pneumococci", "assay": "MIC test on pneumococcal strains", "format": "cell-based, Streptococcus pneumoniae", "method": "The MICs of enzymes and antibiotics were determined in a 96-well titration plate in triplicate. Briefly, the overnight pneumococcal culture was diluted with 2×THY to obtain a final concentration of 1×10^7 CFU/ml, and other bacterial species were diluted with 2-folded medium to 1×10^5 CFU/ml. 100 μl of the diluted bacterial culture was subjected into each well, mixing with the serial 2-fold diluted 100 μl of enzymes/antibiotics. PBS buffer was used as a negative control. The plates were sealed via parafilm and statically incubated at 37° C. incubator for 24 h. The MIC was defined as the lowest concentration of treatment that inhibited visible growth of the bacterium.\nTo further evaluate the activity of ClyX-1, MIC tests were performed against eight serotypes of pneumococci including penicillin-resistant strains and capsule-free mutant with information shown in FIG. 13. Penicillin and levofloxacin were tested as standards to benchmark the antimicrobial activity. All of the strains were sensitive to levofloxacin (MIC<=2). Only the two penicillin-resistant strains indicated MIC larger than 2 μg/ml (resistance). […] The MICs of ClyX-1 were lower than that of Cpl-1 and even levofloxacin, ranging from 0.13 μg/ml to 0.5 μg/ml."}, "[2]": {"system": "S. pneumoniae ATCC TIGR 4", "assay": "Bacteriolytic (turbidity reduction) assay", "format": "cell-based, Streptococcus pneumoniae", "conditions": "5 μg/ml; OD from 1.0 to 0.2 within the first 2 min; overnight culture", "method": "In a bacteriolytic assay, bacterial culture (stationary phase) was harvested at 5,000 for 10 min at 4° C., washed twice and resuspended in PBS buffer, pH7.4. In a 96-well titration plate, the resuspended bacterial solution was mixed 1:1 (u/u) with endolysin to a final OD600 between 0.8 to 1.0. In each run, PBS was included as a negative control. Spectrophotometric readings (OD600) were taken every 15 s over 10 min on a spectrophotometer. Vmax was calculated as the slope of the linear portion and represented the endolysins activity. All experiments were conducted in triplicate to get the standard deviation.\nBacteriolytic capacity of ClyX-1 and ClyX-1 linkers were analyzed via the turbidity reduction assay against the overnight culture of S. pneumoniae ATCC TIGR 4. Both enzymes-induced lysis of the bacterial peptidoglycan caused a decrease in OD from 1.0 to 0.2 (80%) within the first 2 min of the turbidity assay at 5 μg/ml as shown in FIG. 9a. The linkers were the only difference between these two enzymes, and the unstructured region of PlyCA GyH, PlyCA CHAP, and Cpl-1 CBD provide optimal flexibility for enzymatical activity. High lytic activity correlated with data for bacterial survival after chimera treatment. ClyX-1 sterilized cultures for 5 min, causing a decrease in TIGR 4 viability of ˜6 log, at as low as 0.5 μg/ml (FIG. 9b). […]"}, "[3]": {"system": "S. pneumoniae D39", "assay": "Bactericidal assay on D39, ClyX-1 compared with Cpl-1 and PlyCA", "format": "cell-based, Streptococcus pneumoniae", "method": "(§1) (a) Different concentrations of ClyX-1 and Cpl-1 were mixed with 10^6 overnight S. pneumoniae D39 culture for 5 min. The cells were then serial diluted and plated on the THY plates. Log killing was determined through the comparisons of PBS treatment and the enzymes treatment. (b) Female BALB/c mice were injected intraperitoneally with pneumococcus strain S. pneumoniae NS26 at a single dose at 2.95×10^7 colony forming units (CFU) per mouse. One hour after the infection, mice were intraperitoneally received a single dose of different treatments in different amount per mouse. The lines represent the percentage survival of mice for 10 days. The data was plotted as Kaplan-Meier survival curves and analyzed via the Log-rank (Mantel-Cox) test (*P<0.001; **P<0.0001);\n(§2) With regard to bactericidal assay, bacterial cells were diluted to 2× rich media to generate a final concentration of 5.0×10^6 CFU/ml. 100 μl of the diluted bacterial culture was added into a 96-well titration plate in triplicate and mixed with 100 μl of sterile-filtered enzymes. Plates were sealed and incubated at 37° C. for 5-60 min. After the incubation, bacterial cells were serially diluted in 10-fold increments into sterile PBS and plated on THY/TSB agar. Log killing was calculated as follows: −log[(CFU under enzyme treatment)/(CFU under PBS treatment)].\nBactericidal assays were repeated using the three lysins at different concentrations (0.5 μg/ml to 50 μg/ml) on a different strain, D39 (FIG. 10a)."}, "[4]": {"system": "five strains of stationary phase S. pneumoniae", "assay": "Bactericidal activity of ClyX-3 on pneumococcal strains", "format": "cell-based, Streptococcus pneumoniae", "conditions": "5 μg/ml; 5 min", "method": "(a) Bactericidal effects of ClyX-3 against five strains of stationary phase S. pneumoniae. 5 μg/ml of enzymes were mixed with 10^6 bacterial cultures for 5 min. Log killing was determined through the comparisons of PBS treatment and enzymes treatment. (b) Bactericidal effects of ClyX-4 against stationary phase streptococci. 50 μg/ml of enzymes were mixed with 10^6 bacterial culture for 1 h. Log killing was determined through the comparisons of PBS treatment and enzymes treatment;\nas §2\nWith regard to applying the design rationale to add a C′ terminal EAD such that two EADs are disposed at each side of the CBD, the process was used to engineer endolysins for increased activity. […]"}, "[5]": {"system": "S. pneumoniae NS26", "assay": "Mouse systemic infection model, survival", "format": "in vivo, female BALB/c mice", "method": "as §1\nWith regard to in vivo mouse infection models, mouse infection experiments were carried out in an ABSL-2 lab. In the mouse systemic infection model, female BALB/c mice (6-8 weeks old) were injected intraperitoneally with S. pneumoniae NS26 at a single dose of 2.95×10^7 CFU/mouse and divided randomly into multiple groups. Bacterial burden in blood and organs in mice 1 h post-infected were confirmed by plating on THY agar as described previously. One hour post-infection, these groups intraperitoneally received a single dose of 20, 40, or 80 μg/mouse of […] (n=10); 20, 40, or 80 μg/mouse of Cpl-1 (n=10); 100 μg/mouse of penicillin G (n=10); or an equal volume of PBS buffer (n=10). The survival data for all groups were recorded for 10 days.\nTo validate the in vitro bactericidal activity of ClyX-1, we applied a mouse systemic infection model to test the in vivo efficacy of the enzyme. Mice were challenged to a 2-days lethal-dose of 2.95×10^7 CFU. One hour after infection, the mice were intraperitoneally injected a single dose containing different amount of either ClyX-1 or Cpl-1 ranging from 20 μg-80 μg. The antibiotics control was 100 μg/mouse of penicillin G, and the negative control was as PBS, pH7.4 buffer. The mice were then observed and recorded for the survival data. All the mice treated with PBS buffer died within the first 2 days."}}}
{"molecule": "C[C@H]1COc2c(N3CCN(C)CC3)c(F)cc3c(=O)c(C(=O)O)cn1c23", "note": "[levofloxacin]", "values": [{"measurement": "MIC", "setting": "[1]; all strains, 24 h, unit not given", "result": "<= 2"}]}
{"molecule": "Penicillin", "values": [{"measurement": "MIC", "setting": "[1]; the two penicillin-resistant strains", "result": "> 2", "unit": "µg/mL"}]}
{"molecule": "ClyX-1 linkers: similar to ClyX-1 but with two extra native linkers in the PlyCA; Seq. ID No. 18 (protein, Bacteriophage, similar to ClyX-1 but with two extra native linkers in the PlyCA; ID No. 18) MSKKYTQQQYEKYLAQPANNTFGLSPQQVADWFMGQAGARPVINSYGVNASNLVSTYIPKMQEYGVSYTLFLMYTVFEGGGAGNWINHYMYDTGSNGLECLEHDLQYIHGVWETYFPPALSAPECYPATEDNAGALDRFYQSLPGRTWGDVMIPSTMAGNAWVWAYNYCVNNQGAAPLVYFGNPYDSQIDSLLAMGADPFTGGSITGDGKNPSVGTGNATVSASSECTMEEDDKPKTAGTWKQDSKGWWFRRNNGSFPYNKWEKIGGVWYYFDSKGYCLTSEWLKDNEKWYYLKDNGAMATGWVLVGSEWYYMDDSGAMVTGWVKYKNNWYYMTNERGNMVSNEFIKSGKGWYFMNTNGELADNPSFTKEPDGLITVALQQTNPNPDKPTVKSPGQNDLGSGSDRVAANLANAQAQVGKYIGDGQCYAWVGWWSARVCGYSISYSTGDPMLPLIGDGMNAHSIHLGWDWSIANTGIVNYPVGTVGRKEDLRVGAIWCATAFSGAPFYTGQYGHTGIIESWSDTTVTVLEQNILGSPVIRSTYDLNTFLSTLTGLITFK", "values": [{"measurement": "decrease in OD in turbidity assay", "setting": "[2]", "result": 80, "unit": "%"}]}
{"molecule": "Cpl-1: parental endolysin derived from the streptococcal Cp-1 phage (protein, UniProt P15057 1-339, looked up) Lysozyme: MVKKNDLFVDVSSHNGYDITGILEQMGTTNTIIKISESTTYLNPCLSAQVEQSNPIGFYHFARFGGDVAEAEREAQFFLDNVPMQVKYLVLDYEDDPSGDAQANTNACLRFMQMIADAGYKPIYYSYKPFTHDNVDYQQILAQFPNSLWIAGYGLNDGTANFEYFPSMDGIRWWQYSSNPFDKNIVLLDDEEDDKPKTAGTWKQDSKGWWFRRNNGSFPYNKWEKIGGVWYYFDSKGYCLTSEWLKDNEKWYYLKDNGAMATGWVLVGSEWYYMDDSGAMVTGWVKYKNNWYYMTNERGNMVSNEFIKSGKGWYFMNTNGELADNPSFTKEPDGLITVA", "values": [{"measurement": "log reduction", "setting": "[3]; 0.5 μg/ml, 5 min", "result": "< 1", "unit": "log"}, {"measurement": "concentration at which the bacteria culture was sterilized", "setting": "[3]; within 5 min, tested 0.5 to 50 μg/ml", "result": 50, "unit": "µg/mL"}, {"measurement": "log reduction of tested pneumococcal strains", "setting": "[4]", "result": "~2", "unit": "logs"}, {"measurement": "time within which the mice had died", "setting": "[5]; 20 μg single i.p. dose 1 h after infection", "result": "≤ 5", "unit": "days"}, {"measurement": "mice rescued (survival)", "setting": "[5]; 80 μg single i.p. dose 1 h after infection, 10 days", "result": 20, "unit": "%"}]}
{"molecule": "ClyX-3: the full-length Cpl-1 with an additional C′ terminal PlyC CHAP; Seq. ID No. 21 (protein, Bacteriophage, the full-length Cpl-1 with an additional C′ terminal PlyC CHAP; ID No. 21) MVKKNDLFVDVSSHNGYDITGILEQMGTTNTIIKISESTTYLNPCLSAQVEQSNPIGFYHFARFGGDVAEAEREAQFFLDNVPMQVKYLVLDYEDDPSGDAQANTNACLRFMQMIADAGYKPIYYSYKPFTHDNVDYQQILAQFPNSLWIAGYGLNDGTANFEYFPSMDGIRWWQYSSNPFDKNIVLLDDEEDDKPKTAGTWKQDSKGWWFRRNNGSFPYNKWEKIGGVWYYFDSKGYCLTSEWLKDNEKWYYLKDNGAMATGWVLVGSEWYYMDDSGAMVTGWVKYKNNWYYMTNERGNMVSNEFIKSGKGWYFMNTNGELADNPSFTKEPDGLITVAGSDRVAANLANAQAQVGKYIGDGQCYAWVGWWSARVCGYSISYSTGDPMLPLIGDGMNAHSIHLGWDWSIANTGIVNYPVGTVGRKEDLRVGAIWCATAFSGAPFYTGQYGHTGIIESWSDTTVTVLEQNILGSPVIRSTYDLNTFLSTLTGLITFK", "values": [{"measurement": "activity by MIC compared with parental endolysin and ClyX-1", "setting": "[1]", "result": "better than parental endolysins"}, {"measurement": "log reduction of tested pneumococcal strains", "setting": "[4]", "result": "~4", "unit": "logs"}]}
